Publication PMC3920835

Biological target: Methylibium petroleiphilum PM1 dioxygenase (Mpe_A2762) (Methylibium petroleiphilum PM1) (UniProt A2SJH7)
Test: SEC-MALS

- stoichiometry N: 2
Substance: Methylibium petroleiphilum PM1 dioxygenase (Mpe_A2762) (from UniProt A2SJH7 1-253) (enzyme)
